Earlier results as cited in patent US11040110B2, “Polypeptide complex comprising non-peptidyl polymer having three functional ends” (HANMI SCIENCE CO., LTD., priority 2008, dated 2021).

Conditions: Osborn et al. 2002

In the case of interferon alpha, the serum half-life is given as 5 h.
